Experiment [1] addresses BG505 SOSIP.664 HIV-1 Env ectodomain trimer. Briefly: SPR; 2G12 capture. On the technique in general: SPR reads the build-up and loss of mass on a sensor chip optically.
The target of experiment [2] is BG505.SOSIP.664.201C-433C HIV-1 Env ectodomain trimer. As to the kind of experiment: BLI. In general terms: Biolayer interferometry detects binding as a change in optical thickness at a sensor tip.
Experiment [3] concerns the target BG505 SOSIP.664 HIV-1 Env ectodomain trimer. As to the kind of experiment: BLI.
For experiment [4], the target named is BG505.SOSIP.664.201C-433C HIV-1 Env ectodomain trimer. Briefly: SPR.
The target of experiment [5] is BG505 SOSIP.664 HIV-1 Env ectodomain trimer. As to the kind of experiment: SPR.
Experiment [6] concerns the target T1, BG505 SOSIP.664 trimer+sCD4 complex (human, UniProt P01730 26-208). Briefly: SPR.
Experiment [7] has as its target BG505.SOSIP.664.201C-433C HIV-1 Env ectodomain trimer. Briefly: SPR; +sCD4.
Experiment [8] has the same target. As to the kind of experiment: SPR. This is another data set of the same source.
The target is the same in experiment [9]. As to the kind of experiment: BLI. The source holds these as a separate data set.
Experiment [10] concerns the target BG505 SOSIP.664 HIV-1 Env ectodomain trimer. Briefly: SPR; CD4 Ig capture.
Experiment [11] shares this target. As to the kind of experiment: SPR; CD4 Ig capture. The source holds these as a separate data set.
In experiment [12] the target is T1, BG505 SOSIP.664 trimer+sCD4 complex. Briefly: SPR; 17b capture.

B1: PGT145 antibody (antibody, V domains shown)
VH: QVQLVQSGAEVKKPGSSVKVSCKASGNSFSNHDVHWVRQATGQGLEWMGWMSHEGDKTGLAQKFQGRVTITRDSGASTVYMELRGLTADDTAIYYCLTGSKHRLRDYFLYNEYGPNYEEWGDYLATLDVWGHGTAVTVSS
VL: EVVITQSPLFLPVTPGEAASLSCKCSHSLQHSTGANYLAWYLQRPGQTPRLLIHLATHRASGVPDRFSGSGSGTDFTLKISRVESDDVGTYYCMQGLHSPWTFGQGTKVEIK
As usually defined, the Kd is the free concentration of one partner at which half of the binding sites on the other are occupied at equilibrium, for simple one-to-one binding. Lower therefore signals a tighter complex. With B1, the Kd in experiment [1] is 22.8 nM; in experiment [2] it was 1.68 nM; in experiment [3] it was 1.8 nM; in experiment [4] it was 7.22 nM; in [5] it was 4.38 nM.

B2: 447-52D antibody (antibody, V domains shown)
VH: EVQLVESGGGLVKPGGSLRLTCVASGFTFSDVWLNWVRQAPGKGLEWVGRIKSRTDGGTTDYAASVKGRFTISRDDSKNTLYLQMNSLKTEDTAVYSCTTDGFIMIRGVSEDYYYYYMDVWGKGTTVTVSS
VL: QSVLTQPPSVSAAPGQKVTISCSGSSSNIGNNYVLWYQQFPGTAPKLLIYGNNKRPSGIPDRFSGSKSGTSATLGITGLQTGDEADYFCATWDSGLSADWVFGGGTKLTVL
B2: the Kd in experiment [2] is above 4000 nM; in experiment [3], above 4000 nM; in [4], above 1000 nM; in experiment [6], 1.2 nM; in experiment [5], above 1000 nM; in experiment [7], above 1000 nM.

B3: VRC01 (antibody, V domains shown)
VH: QVQLVQSGGQMKKPGESMRISCRASGYEFIDCTLNWIRLAPGKRPEWMGWLKPRGGAVNYARPLQGRVTMTRDVYSDTAFLELRSLTVDDTAVYFCTRGKNCDYNWDFEHWGRGTPVIVSS
VL: EIVLTQSPGTLSLSPGETAIISCRTSQYGSLAWYQQRPGQAPRLVIYSGSTRAAGIPDRFSGSRWGPDYNLTISNLESGDFGVYYCQQYEFFGQGTKVQVDI
Consider B3, for which the results for the Kd in experiment [8] and in experiment [9] were 1.43 nM and 2.81 nM, respectively.

B4: PGT151 Fab (Fab, V domains shown)
VH: RVQLVESGGGVVQPGKSVRLSCVVSDFPFSKYPMYWVRQAPGKGLEWVAAISGDAWHVVYSNSVQGRFLVSRDNVKNTLYLEMNSLKIEDTAVYRCARMFQESGPPRLDRWSGRNYYYYSGMDVWGQGTTVTVSS
VL: DIVMTQTPLSLSVTPGQPASISCKSSESLRQSNGKTSLYWYRQKPGQSPQLLVFEVSNRFSGVSDRFVGSGSGTDFTLRISRVEAEDVGFYYCMQSKDFPLTFGGGTKVDLKR
For B4, the Kd in experiment [1] is 144 nM; in [2] it was 202 nM; in experiment [3] it was 135 nM; in experiment [10], 106 nM; in experiment [4] it was 78.4 nM; in experiment [5], 158 nM.

B5: 35O22 Fab (Fab, V domains shown)
VH: QGQLVQSGAELKKPGASVKISCKTSGYRFNFYHINWIRQTAGRGPEWMGWISPYSGDKNLAPAFQDRVIMTTDTEVPVTSFTSTGAAYMEIRNLKFDDTGTYFCAKGLLRDGSSTWLPYLWGQGTLLTVSS
VL: QSVLTQSASVSGSLGQSVTISCTGPNSVCCSHKSISWYQWPPGRAPTLIIYEDNERAPGISPRFSGYKSYWSAYLTISDLRPEDETTYYCCSYTHNSGCVFGTGTKVSVL
Regarding B5, the Kd in [11] was 28 nM; in experiment [12], 27.2 nM; in [8] it was 3.04 nM; in experiment [9], 27.7 nM.

B6: F105 antibody (antibody, V domains shown)
VH: QVQLQESGPGLVKPSETLSLTCTVSGGSISSHYWSWIRQSPGKGLQWIGYIYYSGSTNYSPSLKSRVTISVETAKNQFSLKLTSMTAADTAVYYCARGPVPAVFYGDYRLDPWGQGTLVTVSS
VL: EIVLTQSPGTLSLSAGERATLSCRASQSVSSRYLAWYQQKPGQAPRLLIYGASSRATGIPDRFSGSGSGTDFTLTISRVEPEDFAVYYCQQYDNSVCTFGQGTKLEIK
On to B6, for which the Kd was above 4000 nM in experiment [2], above 4000 nM in experiment [3], above 1000 nM in experiment [4] and above 1000 nM in experiment [5].

The values are drawn from patent US20230227512A1 (published 2023).
